Data: patent US20140341888A1

Target: EGFR-AP fusion protein (UniProt P00533)
Assay: SPR (BIAcore), EGFR-AP immobilized, antibody 1.5 nM to 100 nM

IMC-11F8 Fab, sequence (VH): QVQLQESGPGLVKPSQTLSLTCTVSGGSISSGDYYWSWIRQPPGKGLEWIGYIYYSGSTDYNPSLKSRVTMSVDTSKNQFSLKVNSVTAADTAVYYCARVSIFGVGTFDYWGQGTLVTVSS
IMC-11F8 Fab, sequence (VL): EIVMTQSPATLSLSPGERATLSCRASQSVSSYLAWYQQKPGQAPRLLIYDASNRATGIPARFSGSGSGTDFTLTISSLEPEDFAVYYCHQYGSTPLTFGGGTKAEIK

A Kd of 1.78 nM, a koff of 0.00367 s⁻¹ and a kon of 2.29e+06 M⁻¹ s⁻¹ were found for IMC-11F8 Fab in this work.
